To fix the notation:
B1: TPR t1 (parent)
chain: GACCAAUCUGCCCUCAGAGCUCGAGAACAUCUUCGGAUGCAGAGGAGGCAGGCUUCGGUGGCGCGAUAGCGCCAACGUCCUCAACCUCCAAUGCAUCCCACCACAUGAUGAUGCCUGAAGAGCCUUGGUUUUUUG

Variants of B1 are the subject of this data set. The data set can be described thus: polymerase ribozyme fitness, log enrichment relative to wild type (log ratio); higher = more active; in vitro selection for triplet polymerase activity. The method in brief: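 Mutant libraries for each subunit of a heterodimeric triplet polymerase ribozyme were made by PCR and then transcribed. Each library underwent one round of in vitro selection in triplicate: annealing with a biotinylated primer, the partner subunit and triplets, frozen incubation at −7 °C, gel excision of extended constructs, streptavidin-bead capture and RT-PCR. Input and output libraries were Illumina-sequenced, and only genotypes with ≥10 input reads and ≥1 read per output were kept. Fitness is the logarithm, base 2, of genotype enrichment over wild-type enrichment, computed from inverse-variance-weighted replicate averages.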
C22U G71A U78A: the “polymerase ribozyme fitness (log ratio)” value was -4.62.
For C12U G42U C49G C73U U96C the value was -2.57.
In the case of C15U C70U U81A G113A G117A it was -4.22.
For C49U U130A the value was -0.901; for G63A G107U, -5.22.
As for C12G U38G G44U U78A, the “polymerase ribozyme fitness (log ratio)” value is -1.53.
In the case of A66G U131G it was -2.21.
For A26U G61C U96A C114U G117A the value was -5.84.
In the case of U21C G39A U54A U78A C98U G110U it was -6.3; in that of C97U U112G U116A U129C, -4.3.
With A5C C56U C73A C115G G117A, the “polymerase ribozyme fitness (log ratio)” value was -7.51.
On to C12U C53U G71U G77A G120C, for which the “polymerase ribozyme fitness (log ratio)” value was 1.19.
For A16G G36U G69C A121U, the “polymerase ribozyme fitness (log ratio)” value is -1.25.
As for U7G G10C G45U C62A C115U, the “polymerase ribozyme fitness (log ratio)” value is -3.58.
For G19U C40U G47U G61A U106A C123U the value was -6.98.
For C22U G63C the value was -4.47; for C64G C82G C89U A100G A111C U116A U129G, -5.44; for C73U C85A G120U, -0.527.
With G36U G39C, the “polymerase ribozyme fitness (log ratio)” value is -1.56.
For C53G G117A the value was -1.45.
In the case of A41U G93A U112A it was -1.69; in that of G10C A16C C53U G117U, -4.5; in that of U54A G120A, 0.0705.
As to G110U A111G G113C, the “polymerase ribozyme fitness (log ratio)” value is -2.46.
For C11U A83U C101G the value was -2.28.
In the case of U55G C123G it was 2.06; in that of G44U U112G, -1.6; in that of G52C U96C G110U, -1.98.
With A43U G120A, the “polymerase ribozyme fitness (log ratio)” value is -0.64.
In the case of U96C A105U it was -3.06.
Turning to G110C U130G, the “polymerase ribozyme fitness (log ratio)” value is -6.34.
On to U9G C31G U87A C114A, for which the “polymerase ribozyme fitness (log ratio)” value is -5.66.
For the variant C70U C88G U132C, the “polymerase ribozyme fitness (log ratio)” value is -1.25.
In the case of C13A C82G it was -1.93; in that of A5C U112C, 0.655; in that of A46U A50U G61U U125C, -4.52.
For G48U A90U the value was -1.38.
For A6U C34U the value was -4.08; for G42A G69U C89G, -0.811; for C8G C31G, -6.18.
Consider C8A C13A A27G, for which the “polymerase ribozyme fitness (log ratio)” value is -4.58.
For C73G C89G U131A the value was -2.56.
In the case of C11A U54G, the “polymerase ribozyme fitness (log ratio)” value was -2.05.
For G10A C11G G51U the value was -2.64; for C4A U7A G71A, -1.76; for G61A U116G G128U, -3.71.
Take C72U G122A: the “polymerase ribozyme fitness (log ratio)” value was -0.576.
For C20G U32C G48C G120A U130A the value was -5.95; for C22G G60C C104A A121U, -2.34; for C64A U87A G93A U112A, -5.11.
For the variant C82G C124U, the “polymerase ribozyme fitness (log ratio)” value worked out at 1.29.
In the case of U106A U109C it was -3.27; in that of G39A C62A C72G, -4.2.
In the case of C13U G60C G93A G110A U130A it was -3.35; in that of G10A G61U C86U U92C G93A, -2.24; in that of C34A A37G, -2.73.
In the case of G48U C97G it was -4.5.
For C11U C40U A121C U129G, the “polymerase ribozyme fitness (log ratio)” value was determined as 0.406.
For U32C G71U U129A the value was -1.48; for G44U G61U G110U, -1.97.
In the case of A37C G45C A111G it was -2.91.
Regarding C53A G63A C115U, the “polymerase ribozyme fitness (log ratio)” value was -3.96.
In the case of C28U G45A G63C it was -3.75.
Turning to C20A C56A C98U, the “polymerase ribozyme fitness (log ratio)” value is -3.64.
Turning to C53A C79A G117U, the “polymerase ribozyme fitness (log ratio)” value is -4.98.
For A37G G52C A100C C104U the value was -2.8; for C40G C62U, -1.8; for C12U G71U, 0.0835.
For C20U C49U C62U G69A the value was -5.65; for U33A G44A C72A U112G, -6.21.
G47U G60U U116C U131A U132C: the “polymerase ribozyme fitness (log ratio)” value was -1.54.
As for U21A G45U G63A G113C, the “polymerase ribozyme fitness (log ratio)” value was -6.02.
For U14A A37C A43U A90U U130G the value was -2.85.
As for A66G G77U C89A, the “polymerase ribozyme fitness (log ratio)” value is -4.38.
For G39U C76U the value was -0.958; for C11U G69A A84C, -2.03.
In the case of G48A G63U C88U it was -1.66; in that of C11G C64A A111U U130G, -6.86.
In the case of C64U G113U it was -2.54.
For U9A A46U A74C C88G, the “polymerase ribozyme fitness (log ratio)” value is -2.48.
In the case of A27C G57C, the “polymerase ribozyme fitness (log ratio)” value is -3.36.
For C13U G60A C114A U130C the value was -0.229.
In the case of C73G U112A it was -0.766; in that of A5U C12G C89U A103C G117U, -6.59.
For U9G C73A the value was -0.668.
As to U14G C89G, the “polymerase ribozyme fitness (log ratio)” value is -3.56.
For C12U C53U C124U the value was 1.56.
Turning to A6U U131A, the “polymerase ribozyme fitness (log ratio)” value stood at 0.0258.
Turning to A6C G57C C70U, the “polymerase ribozyme fitness (log ratio)” value was -0.399.
For G47C G52C A68U U109A the value was -7.13.
For A6C G57C the value was -0.375; for C20A G39A C80U A91C, -6.34; for C12G G117U, -1.22.
In the case of C22G A75U it was -3.6; in that of A6C G61A, -0.848.
Turning to C49G U112G U129G, the “polymerase ribozyme fitness (log ratio)” value is -0.483.
In the case of C8U G63C C123A U132A it was 1.06; in that of C31U G60A G71A U78G C101U G110U U125A, -6.74.
For G47U G51A G61U C79G G93A G113C C114G the value was -6.6.
Take C70A G77C: the “polymerase ribozyme fitness (log ratio)” value was -2.99.
Turning to U54A C62U C64U, the “polymerase ribozyme fitness (log ratio)” value was -0.217.
For G44U C62G C79U A90G the value was -1.45; for G69U A95G G135U, -0.343.
For G10U A29U C70G G113A the value was -4.17; for G35C G61C C79G, -6.99; for C13G A50C C53G U96G, -3.94.
In the case of C73A A90U it was -3.12.
As to U81A C88A C101U, the “polymerase ribozyme fitness (log ratio)” value is -1.46.
In the case of C73G C85U G117C U133A it was -6.98; in that of C56U C94A, -0.478; in that of C28A C124U, -2.12.
Take A2G C15G G44A C62A A90C C97U G120A: the “polymerase ribozyme fitness (log ratio)” value was -3.89.
For U30G the value was -5.83.
In the case of U9G G42U A121C it was 0.979.
In the case of A2G G57A G61A G117U it was -3.55.
With A41U C124A, the “polymerase ribozyme fitness (log ratio)” value was determined as 0.11.
For C11G C15A A29U G45C G77A G120A G128U the value was -5.34; for C11U C56G, -1.1; for G42U G47C, -5.66.
Turning to C70G U81A G117U G120A, the “polymerase ribozyme fitness (log ratio)” value was -5.65.
In the case of C28G G45U it was -4.17; in that of C70G U78A G93C, -2.76; in that of C20G C56G A95C G117U C124A, -3.93.
For G63U C94A A108G the value was -5.53; for C28G A84U A103U G110C, -4.22; for C13A C56G C73U G77U, -1.96.
On to C101A C115A, for which the “polymerase ribozyme fitness (log ratio)” value is -1.02.
In the case of A2C C114A it was -3.32; in that of A105U U112C, -1.65; in that of G60A C80A G113C, -6.39.
In the case of C11U A43C C76U A83U A90G it was -3.5; in that of C40U C72G G117U U130A, -4.89; in that of C11A C56A C64U U126G, -4.75.
In the case of C12U G36A it was -0.19; in that of C72A C76A, -1.85; in that of A46U G93A, -1.93.
Turning to U9G A95G, the “polymerase ribozyme fitness (log ratio)” value is 0.394.
In the case of A105G U109A it was -5.94.
As for U9C A26G A27U U54A C82G, the “polymerase ribozyme fitness (log ratio)” value was -5.13.
For G93A G122A the value was -1.4; for C34U A41U C72U A105C G113C, -7.42; for G36A A37G G52C, -4.05.
For G44U C53G G71U C73A C82U U129G the value was -3.9.
In the case of U14C G60C U96A it was -3.46; in that of C8G U14A G57A C97U A103C, -6.07.
For the variant G42U A68U C123G U130A, the “polymerase ribozyme fitness (log ratio)” value was -5.54.
For the variant U14A A74G G77C G120C, the “polymerase ribozyme fitness (log ratio)” value is -0.447.
In the case of U38G C53G it was -1.52; in that of G57C A121C, 1.63; in that of A43U U54A U112A, -0.639.
For G71A U129A the value was -1.76; for C12A A27C C40G G63C G120A, -2.65.
In the case of C13A A43G C70G U116C G117U it was -6.51.
With U55G C99U, the “polymerase ribozyme fitness (log ratio)” value is -2.45.
For C56A G69A G117U the value was -6.41; for U30A G39C, -5.36.
In the case of G52A C114G it was -3.02.
For A6G C72U C97U the value was -1.35.
In the case of G63C U78C, the “polymerase ribozyme fitness (log ratio)” value is -1.55.
Regarding G63C C123U, the “polymerase ribozyme fitness (log ratio)” value came out at 0.859.
For C11U G17A C64U A83C A84C A119G the value was -0.999; for G10U G122A, 0.462.
In the case of G63U C86A it was -2.12; in that of A5C A29G C49G C70A U92C G117U, -7.38; in that of A103U G127U U129G, -3.98.
For G10A A41C C56U U78G C82U the value was -1.79.
As for C13U G113U U125C, the “polymerase ribozyme fitness (log ratio)” value was -1.89.

These data come from the RNAGym collection of RNA variant scans (doi:10.1073/pnas.2313332121).
